Experiment: yeast display, Sf9 membrane polyspecificity reagent, FACS + sequencing; frameworks hold sequencing errors
Outline: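 In a synthetic yeast display library (Saccharomyces cerevisiae BJ5465), nanobody expression was induced with galactose for 36–48 hours. FACS gates were set low and high (top ~1%) using anti-HA fluorescence for expression and streptavidin fluorescence for binding of the Sf9 membrane reagent. Each polyreactivity label is drawn from the gate of origin.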

Sequence	polyreactivity (PSR sort gate)
QVQLVESGGGLVQAGGSLRLSCAASGSTYVSNAMGWYRQAPGKERELVAAISTGGGTCYADSVKGRFTISRDNAKNTVYLQMNSLKPEDTAVYYCNAVYVWWDGWGLYYWGQGTQVTVSS	low polyreactivity
QVQLVESGGGLVQAGGSLRLSCAASGSTYYYAMGWYIQEPGKEREFVAAISASGGSTYYADSVKGRFTISRDNAKNTVYLQMNSLKPDDTAGYYCTPLGYGYWGQGTQVTVSS	high polyreactivity
QVQLVESGGGLVQAGGSLRLSCAASGSTYYYAMGWYREAPGKERELVAAISSSSGSTYYADSVKGRFTISRDNAKNTVYLQLNSLKPEDTAVYYCAAEGYKGWVYEYDYWGQGTQVTVSS	low polyreactivity
QVQLVESGGGLVQAGGSLRLSCAASGSTYYYYAMGSYRPAPGKERELVAAINTSGGITYYADSVKGRFTISRDNAKNTVYLQMNSLKPEDTAVYYCAARNRSYCGTFGSYNYDYWGQGTQVTVSS	high polyreactivity
QVQLVESGGGLVQAGGSLRLSCAASGSTYYYYAMGWYRQAPGKERELVASIRSGGNTNYADSVKGRFTISRDNAKNTVYLQMKSLIPEDTAVYYCASRYMGSYSGGNYWGQVTQVTVSS	low polyreactivity
QVQLVESGGGLVQAGGSLRLSCAASGSVFGKYAMGWYRQAPGKERELVAAISRSGGSTYYADSVKGRFTISRDNAKNTVYLQMNSLKPEDTAVYYCAADSPGPWRYDYWGQGTQVTVSS	high polyreactivity
QVQLVESGGGLVQAGGSLRLSCAASGSYTMGWYRQAPGKERELVAAISKSCGSTYYADSVKGRFTISRDNAKNTVYLQMNSLKPDDTAVYYCAAVGWWGTYDYWGQGTQVTVSS	high polyreactivity
QVQLVESGGGLVQAGGSLRLSCAASGTFAFYTMGWYRPAPGKERELVAAISWDGGDTYYADSVKGRFTISRDNAKNTVYLQMNSLKPEDTAVYYCAADYSNSGYGYWGQGTQVTVSS	low polyreactivity
QVQLVESGGGLVQAGGSLRLSCAASGTFDYYDMGWYRQAPGKERELVAGITSGGSTDYADSVKGRFTISRDNAKNTVYLQMNSLKPEDTAVYYCAADPFRIHTYDYWGQGTQVTVSS	low polyreactivity
QVQLVESGGGLVQAGGSLRLSCAASGTFKWYAMGWYRQAPGKERELVAVISSSSSTNYADSVKGRFTISRDNAKNTVYLQMNSLKPKIPAVYYCNAKWTTLFDYWGQGTQVTVSS	high polyreactivity
QVQLVESGGGLVQAGGSLRLSCAASGTFPGNAMGWYRQSPGKERELVATITRGGRTYYADSVKGRFTISRDNAKHTVYLQMNSLKPEDTAVYYCNTRVYFGKIRGYDYWGQGTQVTVSS	high polyreactivity
QVQLVESGGGLVQAGGSLRLSCAASGTFQYNAMGWYRQAPGKERELLAAITSGGSTNYADSVKGRFTISRDNAKNTVYLQMNSLKPEDTAVYYCAAVRRYRASRGSLYYYWGQGTQVTVSS	high polyreactivity
QVQLVESGGGLVQAGGSLRLSCAASGTFSFYALGWYRHAPGKERELVATIRSGGRTYYADSVKGRFTISRDTAKNTVYLQMNSLKPEDTAVYYCAKTGFLGLRQYGYWGQGTQVTVSS	high polyreactivity
QVQLVESGGGLVQAGGSLRLSCAASGTFVTYMGWYRQAPGKERELVAAIRNGGSTNYADSVKGRFTISRDNAKNTVYLQMNSLKPEDTAVYYCAARVTYSRGYRGGSRTKYDYWGQGTQVTVSS	low polyreactivity
QVQLVESGGGLVQAGGSLRLSCAASGTFYKYAMGWYRQAPGKERELVAAISWRGGRTYADSVKGRFKISRDNAKNTVYLQMNSLKPEDTAVYYCNKRFYPEHYYWGQGTQVTVSS	high polyreactivity
QVQLVESGGGLVQAGGSLRLSCAASGTIFSRNAMGWYRQAPGKERELVAAITGSGSSTYYADSVKGRFTISRDNAKNTVYLQMNSLKPEDTAVYYCNAARVYLSEWGQGTQVTVSS	high polyreactivity
QVQLVESGGGLVQAGGSLRLSCAASGTISVFYAKGWYRQAPGKEREFVAAISWRGGRTYYADSVKARFTISRDNAKNTVYLQMNSLKPEDTAVYYCAKDIVRGRSSRYDYWGQGTQVTVSS	high polyreactivity
QVQLVESGGGLVQAGGSLRLSCAASGTNGMGWYRQAPGKERELVAAISGSGGSTYYADSVKGRFTISRDNAKNTVYLQMNSLKPEDTAVYYGAADSIQYTARPYDYWGQGTQVTVSS	low polyreactivity
QVQLVESGGGLVQAGGSLRLSCAASGTTFAGNAMGWYRQAPGKERELVAAITFSGGRTDYADSVKGCFTISRDNAKNTVYLQMNSLKPEDTAVYYCAAPADDTVHYQNYYWGQGTQVTVSS	low polyreactivity
QVQLVESGGGLVQAGGSLRLSCAASGTTFAVYTMGWYRQAPGKERELSTSYADSVKGRFTISRDNAKNTVYLQMNILKQEDTAVYYCNRDFYEFDSNSYRFDYWGQGTQVTVSS	low polyreactivity
QVQLVESGGGLVQAGGSLRLSCAASGTTFRIYSMGWYRQAPGKERELVAGITRRGGSTFYADSVKGRFTISRDTAKNTVYFQMNSLKPEDTAVYYCAARFRGGMDYWGQGTQVTVSS	high polyreactivity
QVQLVESGGGLVQAGGSLRLSCAASGTTFSGNAMGWYRQAPGKERELVAAITRSGSRTYYADSVKGRFTISRDNAKNTVYLQMHSLKPEDTAVYYCAKVGRTGDDYYYWGQGTQVTVSS	high polyreactivity

Sequence	polyreactivity (PSR sort gate)
QVQLVESGGGLVQAGGSLRLSCAASGTTFYYNAMGWYRQAPGKERELVARISRSGGSTYADSVKGRFTISRDNAKNTVYLQMNSLKPEDTAVYYCNADAYGTPEFTSYAVRYDYWGQGTQVTVSS	low polyreactivity
QVQLVESGGGLVQAGGSLRLSCAASGTTIPRNAMGWYRQAPGKERELVAAITSGGSTNYADSVKGRFTISRDNAKNTVYLQMNSLKPEDTAVYYCAADEQVNTQYVVWGDYWGQGTQVTVSS	low polyreactivity
QVQLVESGGGLVQAGGSLRLSCAASGTTLVRYAMGWYRQAPGKERELVASISYSGGSTHYADSVKGRFTISRDNAKNTVYLQMNSLKPEDTAVYYCAARPYYSWGGHYYWGQGTQVTVSS	high polyreactivity
QVQLVESGGGLVQAGGSLRLSCAASGTTYYNAMGWYRQAPGKERELVAAIRFRSGSTYYADSVKGRFTISRDNAKNTVYLQMNSLKPEDTAVYYFAADNKRSWRYAYNYWGQGTQVTVSS	high polyreactivity
QVQLVESGGGLVQAGGSLRLSCAASGVIFEYTAMGGYRQAPGKERELVAAITSSGGSTYYADSVKGRFTISRDKAKNTVYLQMNSLKPEDTAVYYCARVRRSAYYQDYYSWGQGTQVTVSS	high polyreactivity
QVQLVESGGGLVQAGGSLRLSCAASGYGMGWYRQAPGKEREFVAAITSGGSTNYAVSVKGRFTISRDNAKNTVYLHMNSLKPEDSAVYYCAAAYSLYGHRYDYWGQGTQVTVSS	high polyreactivity
QVQLVESGGGLVQAGGSLRLSCAASGYIFADYAMGWYRQAPGKEREFVARIRYRDGSTYYADSVKGRFTISRDNAKNTVYLQMNSLKPEDTAVYYCAAQLGRYSYYPMDYWGKGTQVTVSS	high polyreactivity
QVQLVESGGGLVQAGGSLRLSCAASGYIFATYAMGWYRQAPGKERELVAAISWSGGRTYYADSVKGRFTISRDNAKNTVYLQMNSLKPEDTAVYYCNKATSRRVYGYDYWGQGTQVTVSS	high polyreactivity
QVQLVESGGGLVQAGGSLRLSCAASGYIFATYAMGWYRQAPGKERELVAAITSTGSTYYADSVKGRFTISRDNAKNTVYLQMNSLKPEDTAVYYCAAVSGYRARYYLYYYWGQGTQVTVSA	high polyreactivity
QVQLVESGGGLVQAGGSLRLSCAASGYIFDLNPMGRYRQAPGKERELVAAISTGGGTYYADSVKGRFTISRDNAKNTVYLQMNSLKPEDTAVYYCAADWGYWYAEYDYWGQGTLVTVSS	low polyreactivity
QVQLVESGGGLVQAGGSLRLSCAASGYIFDRYAMGWYRQAPGKERELVAAISSDGSTYYADSVKGRFTISRDNAKNTVYLQMNSLKPEDTAVYYCAADGGESAWGGYDYWGQGTQVTVSS	low polyreactivity
QVQLVESGGGLVQAGGSLRLSCAASGYIFEDYAMGWYRQAPGKERELVASIDSGSTTNYADSVKGRFTISRDNAKNTVYLQMNSLKPEDTAVYYCAADSYVSPEVRFDYWGQGTQVTVSS	low polyreactivity
QVQLVESGGGLVQAGGSLRLSCAASGYIFEVNAMGWYRQAPGKERELVATIDTSSGSTNYADSVKGRFTISRDNAKNTVDLQMNSLKPEDTAVYYCAADDETVFLQDDYWGQGTQVTVSS	low polyreactivity
QVQLVESGGGLVQAGGSLRLSCAASGYIFFNAMGWYRQAPGKERELVAAITYPVGSTHYADSVKGRFTISRDNAKNTVYLQMNSLKPEDTAVYYCAAEWYQYLRWYWTYEYYWGQGTQVTVSS	low polyreactivity
QVQLVESGGGLVQAGGSLRLSCAASGYIFGINDMAWYIQAPGKERELVAAIRISGGSTYYADSVKGRFTISRDNAKNTVYLQMNSLKPEDTAVYYCNAQDDGGLEWRYEEDDYWGQGTQVTVSS	low polyreactivity
QVQLVESGGGLVQAGGSLRLSCAASGYIFGSYAMGWYSQAPGKERELVATISYRAGRTYYADSVKGRFTISRDNAKNTVDLQMNSLTPEDTAVYYCAADLVIYLEYDYWGQGTQVTVSS	low polyreactivity
QVQLVESGGGLVQAGGSLRLSCAASGYIFGVYAMGWYRQAPGKERELVAAISYGVGSTYYADSVKGRFTISRDNAKNTVYLQMNSLKPEDTAVYYCAADVFFYVYEAYLLYYWGQGTQVTVSS	low polyreactivity
QVQLVESGGGLVQAGGSLRLSCAASGYIFGVYAMGWYRQAPGKERELVAVISSGDRTNYADSVKGRFTISRDNAKNTVYLQMNSLKPEDTAVYYCAADGRSPSYYGYDHWGQGTQVTVSS	low polyreactivity
QVQLVESGGGLVQAGGSLRLSCAASGYIFGVYVMGWYRQAPGKERELVAAITRGGGNTYYADSVKGRFTFSRDNAKNPVYLQMNSLKPEDTAVYYCAARSLKSLSRYYYWGQGTQVTVSS	high polyreactivity
QVQLVESGGGLVQAGGSLRLSCAASGYIFGWYDMGWYRQAPGKERELVAAIDSGGNTYYADSVKGPFTISRDNAKNTVYLQMNSLKPEDTAVYYCNADYWGWSGPPYEYWGQGTQVTVSS	high polyreactivity
QVQLVESGGGLVQAGGSLRLSCAASGYIFGYNAMGWYRPAPGKERELVAAISRSAGRTYYADSVKGRFTISRDNAKNTVYLQMNSLKPEDSAVYYCAAQSYWLGYEYWGQGTQVTVSS	high polyreactivity
